Experimental findings from paper doi:10.1101/323055 are described below.

In this test the target is TmFtsH_(184,513), double Cys variant of His6-(Δtm)TmFtsH(147–610) (Thermotoga maritima) (UniProt Q9WZ49).

As usually defined, the Kd is the concentration at which binding is half-saturated. Read a high Kd as lower affinity. In the case of “TmFtsH_(184,513), double Cys variant of His6-(Δtm)TmFtsH(147–610) (from UniProt Q9WZ49 147-610) (enzyme)”, the dissociation constant (Kd) was determined as 400 nM.
